Measured values from the supplement of paper PMC9112550, “Optimization of the antimicrobial peptide Bac7 by deep mutational scanning” (BMC Biology, 2022).
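Note: peptides expressed intracellularly from a pBAD plasmid library in pooled LB shake-flask culture, induced with 0.3% L-arabinose, DNA abundance read by NGS, three biological replicates, DESeq2 with apeglm shrinkage.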

The sequences below were run on Escherichia coli TOP10 (assay: shrunken log2 fold change of peptide-encoding DNA abundance (4.5 h post-induction vs induction); higher = less antimicrobial activity (less host growth inhibition)). Conditions: time post-induction: 4.5 h; library: site-saturation at positions 5, 18, 19, 20.
For RRIRWRPPRLPRPRPRPILQPRP, the “shrunken log2 fold change” value was 0.0247. RRIRVRPPRLPRPRPRPGICPRP was tested, and the “shrunken log2 fold change” value was -0.0598. In the case of RRIRCRPPRLPRPRPRPEPGPRP, the “shrunken log2 fold change” value is reported as 0.364. RRIRNRPPRLPRPRPRPRCNPRP was tested, and the “shrunken log2 fold change” value was -0.0207. In the case of RRIRFRPPRLPRPRPRPNFPPRP, the “shrunken log2 fold change” value is reported as -0.254. RRIRMRPPRLPRPRPRPRWHPRP was tested, and the “shrunken log2 fold change” value was 0.378. With RRIRHRPPRLPRPRPRPEHRPRP the “shrunken log2 fold change” value was -0.137. With RRIRKRPPRLPRPRPRPEDSPRP the “shrunken log2 fold change” value was 1.28. For RRIRSRPPRLPRPRPRPTWFPRP, the “shrunken log2 fold change” value was -0.216. With RRIRCRPPRLPRPRPRPQIWPRP the “shrunken log2 fold change” value was -0.226. With RRIRLRPPRLPRPRPRPHGPPRP the “shrunken log2 fold change” value was 0.101. In the case of RRIRNRPPRLPRPRPRPLGEPRP, the “shrunken log2 fold change” value is reported as -0.0638. In the case of RRIRDRPPRLPRPRPRPSGLPRP, the “shrunken log2 fold change” value is reported as 0.284. With RRIRTRPPRLPRPRPRPYYIPRP the “shrunken log2 fold change” value was -0.845. In the case of RRIRARPPRLPRPRPRPYKCPRP, the “shrunken log2 fold change” value is reported as -0.138. In the case of RRIRDRPPRLPRPRPRPTRAPRP, the “shrunken log2 fold change” value is reported as 0.889. For RRIRNRPPRLPRPRPRPLTTPRP, the “shrunken log2 fold change” value was -0.07. With RRIRERPPRLPRPRPRPYPKPRP the “shrunken log2 fold change” value was -0.405. With RRIRYRPPRLPRPRPRPIMQPRP the “shrunken log2 fold change” value was -0.107. For RRIRTRPPRLPRPRPRPMMIPRP, the “shrunken log2 fold change” value was 0.000458. For RRIRGRPPRLPRPRPRPWHIPRP, the “shrunken log2 fold change” value was -0.111. In the case of RRIRMRPPRLPRPRPRPTQYPRP, the “shrunken log2 fold change” value is reported as 0.248. For RRIRARPPRLPRPRPRPFYDPRP, the “shrunken log2 fold change” value was 0.314. RRIRQRPPRLPRPRPRPKRTPRP was tested, and the “shrunken log2 fold change” value was 0.00512. For RRIRVRPPRLPRPRPRPRIYPRP, the “shrunken log2 fold change” value was -0.15. RRIRVRPPRLPRPRPRPSARPRP was tested, and the “shrunken log2 fold change” value was 0.275. For RRIRTRPPRLPRPRPRPAGSPRP, the “shrunken log2 fold change” value was -0.000597. In the case of RRIRCRPPRLPRPRPRPYWNPRP, the “shrunken log2 fold change” value is reported as -0.629. For RRIRIRPPRLPRPRPRPAQQPRP, the “shrunken log2 fold change” value was -0.0315. With RRIRKRPPRLPRPRPRPVRDPRP the “shrunken log2 fold change” value was 0.48. With RRIRWRPPRLPRPRPRPCPAPRP the “shrunken log2 fold change” value was -0.0319. RRIRRRPPRLPRPRPRPPMCPRP was tested, and the “shrunken log2 fold change” value was 0.622. In the case of RRIRGRPPRLPRPRPRPRQSPRP, the “shrunken log2 fold change” value is reported as 0.647. For RRIRLRPPRLPRPRPRPMQKPRP, the “shrunken log2 fold change” value was -0.0247. With RRIRPRPPRLPRPRPRPRPAPRP the “shrunken log2 fold change” value was 0.529. With RRIRPRPPRLPRPRPRPLFEPRP the “shrunken log2 fold change” value was 0.163. In the case of RRIRIRPPRLPRPRPRPQDPPRP, the “shrunken log2 fold change” value is reported as -0.235. In the case of RRIRSRPPRLPRPRPRPNVWPRP, the “shrunken log2 fold change” value is reported as 0.109. With RRIRCRPPRLPRPRPRPRYEPRP the “shrunken log2 fold change” value was -0.0468. With RRIRMRPPRLPRPRPRPCFGPRP the “shrunken log2 fold change” value was -0.23. With RRIRHRPPRLPRPRPRPIFNPRP the “shrunken log2 fold change” value was -0.447. For RRIRMRPPRLPRPRPRPMYRPRP, the “shrunken log2 fold change” value was -0.0586. For RRIRVRPPRLPRPRPRPGYPPRP, the “shrunken log2 fold change” value was -0.343. RRIRCRPPRLPRPRPRPPLEPRP was tested, and the “shrunken log2 fold change” value was 0.186. In the case of RRIRIRPPRLPRPRPRPFKQPRP, the “shrunken log2 fold change” value is reported as -0.246. For RRIRNRPPRLPRPRPRPNKDPRP, the “shrunken log2 fold change” value was -0.0478. RRIRDRPPRLPRPRPRPGIPPRP was tested, and the “shrunken log2 fold change” value was 0.016. RRIRIRPPRLPRPRPRPPCTPRP was tested, and the “shrunken log2 fold change” value was -0.332. For RRIRERPPRLPRPRPRPPGWPRP, the “shrunken log2 fold change” value was 0.467. For RRIRWRPPRLPRPRPRPPIKPRP, the “shrunken log2 fold change” value was -0.0713. In the case of RRIRSRPPRLPRPRPRPGWEPRP, the “shrunken log2 fold change” value is reported as -0.0365. With RRIRKRPPRLPRPRPRPHPNPRP the “shrunken log2 fold change” value was 0.135. With RRIRRRPPRLPRPRPRPDRYPRP the “shrunken log2 fold change” value was -0.0438. RRIRARPPRLPRPRPRPVSKPRP was tested, and the “shrunken log2 fold change” value was 0.141. With RRIRDRPPRLPRPRPRPHWRPRP the “shrunken log2 fold change” value was 0.0876. In the case of RRIRDRPPRLPRPRPRPVFYPRP, the “shrunken log2 fold change” value is reported as -0.301. With RRIRRRPPRLPRPRPRPLHRPRP the “shrunken log2 fold change” value was 0.202. In the case of RRIRARPPRLPRPRPRPRFGPRP, the “shrunken log2 fold change” value is reported as 0.469. In the case of RRIRPRPPRLPRPRPRPEQTPRP, the “shrunken log2 fold change” value is reported as 0.0268. RRIRNRPPRLPRPRPRPFHKPRP was tested, and the “shrunken log2 fold change” value was -0.107. For RRIRGRPPRLPRPRPRPSQVPRP, the “shrunken log2 fold change” value was 0.235. RRIRTRPPRLPRPRPRPHWKPRP was tested, and the “shrunken log2 fold change” value was 0.00556. In the case of RRIRIRPPRLPRPRPRPFAHPRP, the “shrunken log2 fold change” value is reported as -0.241. With RRIRWRPPRLPRPRPRPSQFPRP the “shrunken log2 fold change” value was -0.196. With RRIRTRPPRLPRPRPRPSSGPRP the “shrunken log2 fold change” value was 0.11. In the case of RRIRLRPPRLPRPRPRPLKHPRP, the “shrunken log2 fold change” value is reported as -0.161. In the case of RRIRRRPPRLPRPRPRPNSFPRP, the “shrunken log2 fold change” value is reported as -0.29. RRIRTRPPRLPRPRPRPAKWPRP was tested, and the “shrunken log2 fold change” value was -0.000772. With RRIRVRPPRLPRPRPRPEINPRP the “shrunken log2 fold change” value was -0.00259. RRIRFRPPRLPRPRPRPAWTPRP was tested, and the “shrunken log2 fold change” value was -0.0896. With RRIRVRPPRLPRPRPRPCTRPRP the “shrunken log2 fold change” value was -0.214. With RRIRGRPPRLPRPRPRPGDDPRP the “shrunken log2 fold change” value was 0.911. With RRIRMRPPRLPRPRPRPWCAPRP the “shrunken log2 fold change” value was 0.204. RRIRNRPPRLPRPRPRPKAWPRP was tested, and the “shrunken log2 fold change” value was 0.133. With RRIRTRPPRLPRPRPRPHNIPRP the “shrunken log2 fold change” value was -0.455.
